The record followed here is PMC2897852 (PLoS ONE, 2010).

Changes are numbered by the printed parent chain. Numbers in names are those of the source.

Sequences and labels used below:
B1: tag-free FtsZ (M. tuberculosis FtsZ, polyhistidine tag cleaved with thrombin) (natural protein)
chain: MTPPHNYLAVIKVVGIGGGGVNAVNRMIEQGLKGVEFIAINTDAQALLMSDADVKLDVGRDSTRGLGAGADPEVGRKAAEDAKDEIEELLRGADMVFVTAGEGGGTGTGGAPVVASIARKLGALTVGVVTRPFSFEGKRRSNQAENGIAALRESCDTLIVIPNDRLLQMGDAAVSLMDAFRSADEVLLNGVQGITDLITTPGLINVDFADVKGIMSGAGTALMGIGSARGEGRSLKAAEIAINSPLLEASMEGAQGVLMSIAGGSDLGLFEINEAASLVQDAAHPDANIIFGTVIDDSLGDEVRVTVIAAGFDVSGPGRKPVMGETGGAHRIESAKAGKLTSTLFEPVDAVSVPLHTNGATLSIGGDDDDVDVPPFMRR
notes: also called FtsZTB
B2: FtsZ G103S, tag-free (pRR3) (natural protein)
chain: B1 chain with G103S
B3: FtsZ D210G, tag-free (pRR7) (natural protein)
chain: B1 chain with D210G

T1 sequence (P9WPB9 whole entry, the tested form may be a part): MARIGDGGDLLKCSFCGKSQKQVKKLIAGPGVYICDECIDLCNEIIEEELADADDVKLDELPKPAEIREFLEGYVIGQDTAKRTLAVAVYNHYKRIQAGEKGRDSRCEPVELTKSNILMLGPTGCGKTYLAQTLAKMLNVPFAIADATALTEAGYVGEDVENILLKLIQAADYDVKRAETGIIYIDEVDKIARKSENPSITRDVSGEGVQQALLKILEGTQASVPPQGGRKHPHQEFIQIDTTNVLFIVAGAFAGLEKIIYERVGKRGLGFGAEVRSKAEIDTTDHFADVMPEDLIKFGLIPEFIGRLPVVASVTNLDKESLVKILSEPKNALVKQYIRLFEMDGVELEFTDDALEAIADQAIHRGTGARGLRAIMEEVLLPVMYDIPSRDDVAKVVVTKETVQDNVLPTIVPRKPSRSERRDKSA

This test addresses T1, His-ClpX (M. tuberculosis ClpX, pRD21) (M. tuberculosis, UniProt P9WPB9 1-426).
T1 construct: also called his-clpXTB; recombinant His-ClpX fusion protein
In words: pull-down. Particulars: both partners purified.
With B1, the binding result is given as “binds”.

On to B2, for which the binding result was “binds”. Take B3: the binding result is listed as “binds”.
